Reference: publication PMC10690159

Target: SARS-CoV-2 Nsp15 catalytically inactive mutant H234A (SARS-CoV-2)
Assay: cryo-EM structure

Substance: SARS-CoV-2 Nsp15 catalytically inactive mutant H234A (enzyme)
- stoichiometry N: 6
